Source: US20160033500A1 (SYSMEX, published 2016)
One block for each molecule: values may come before it.

Tests used:
human serum albumin [1] = target: T1, human serum albumin (human, UniProt P02768 25-609); test: coefficient b of the two-exponential dissociation fit (Equation I), HSA sensor chip, 1000 µM peptide
T1 construct: Adsorbed on an unmodified silicon nitride sensor chip (HSA sensor chip) from a 0.2 µM solution; also called HSA

human serum albumin [2] = target: T1, human serum albumin; test: reflection interference spectroscopy, HSA sensor chip, 1000 µM peptide
human serum albumin [3] = target: T1, human serum albumin; test: reflection interference spectroscopy, HSA sensor chip, 2 µM peptide
Experimental: Then, a running buffer (0.1 M sodium phosphate buffer (pH 6.9)) was injected into a flow path formed between the substrate and the flow cell at a flow rate of 100 μL/min for 30 minutes or more so as to equilibrate the surface of the substrate. […] In injecting the running buffer or the sample, a liquid feeding pump for high-performance liquid chromatograph [product name: Prominence UFLC, manufactured by Shimadzu Corporation] and an autosampler [product name: Chromaster, manufactured by Hitachi, Ltd.] were used. As a result, a solid phase carrier having HSA immobilized on the surface thereon (hereinafter also referred to as “HSA sensor chip”) was obtained. In injecting the HSA solution into the flow path, the wavelength variation Δλ of bottom wavelength of the spectral reflectivity curve of the reflected light when the flow path was irradiated with white light was measured with time, whereby a sensorgram showing the time-dependent change of the wavelength variation Δλ was obtained.

human serum albumin [4] = target: T1, human serum albumin; test: reflection interference spectroscopy, HSA sensor chip, 1 µM peptide
human serum albumin [5] = target: T1, human serum albumin; test: reflection interference spectroscopy, HSA sensor chip, 10 µM lysozyme
human serum albumin [6] = target: T1, human serum albumin; test: coefficient b of the two-exponential dissociation fit (Equation I), HSA sensor chip, 10 µM peptide
Experimental: (§1) The wavelength variation Δλ of the bottom wavelength of the spectral reflectivity curve of the reflected light (the layer thickness change amount Δλ) when the flow path was irradiated with white light was measured with time, whereby a sensorgram was obtained.

human serum albumin [7] = target: T1, human serum albumin; test: reflection interference spectroscopy, HSA sensor chip, 10 µM peptide
Experimental: as §1

human serum albumin [8] = target: T1, human serum albumin; test: reflection interference spectroscopy, HSA sensor chip, 100 µM peptide
Experimental: as §1

human serum albumin [9] = target: T1, human serum albumin; test: reflection interference spectroscopy, HSA sensor chip, 50 µM peptide

Molecule: (His) 3 (peptide)
b value (human serum albumin [1]): 0.344
koff (human serum albumin [2]): 0.00257 s⁻¹
maximum layer thickness change amount Δλ (human serum albumin [2]): 0.027 nm

Molecule: GVPGLGVGAGV [ELN 11mer]
koff (human serum albumin [4]): 0.00016 s⁻¹

B2: Lysozyme (enzyme)
chain: KVYGRCELAAAMKRLGLDNFRGYSLGNWVCAAKFESNFNTHATNRNTDGSTDYGILQINSRWWCNDGRTPGSRNLCNIPCSALLSSDTIASVNCAKKIVSDGNGMNAWVAWRKRCKGTDVNAWTRGCRL
koff (human serum albumin [5]): 0.0066 s⁻¹

Molecule: HHHHHHHHHH [(His) 10]
b value (human serum albumin [6]): 0.093
koff (human serum albumin [7]): 0.00073 s⁻¹
maximum layer thickness change amount Δλ (human serum albumin [7]): 0.086 nm

B3: Kininogen (peptide)
peptide: HNLGHGHKHERDQGHGHQR
notes: Named as the protein, but a 19-residue peptide was used
koff (human serum albumin [8]): 0.00493 s⁻¹

Molecule: AWAVARLSQRFPK [IS 13mer]
koff (human serum albumin [9]): 0.0171 s⁻¹

Molecule: YSMEHFRWGKPVGKK [ACTH15]
b value (human serum albumin [6]): 0.029
koff (human serum albumin [7]): 0.0115 s⁻¹
maximum layer thickness change amount Δλ (human serum albumin [7]): 0.061 nm

Molecule: KKKKKKKKKK [(Lys) 10]
koff (human serum albumin [8]): 0.0002 s⁻¹

The next lines start with the values.

binding result (human serum albumin [3]): binds
B1: fibrinogen α (peptide)
peptide: DEAGSEADHEGTHSTKRGHAKSRPV
notes: Named as the protein, but a 25-residue peptide was used

binding result (human serum albumin [3]): binds
B4: ACTH partial peptide at the 1-41 positions (peptide)
peptide: GPSYSMEHFRWGKPVGKKRRPVKVYPNGAEDESAEAFPLEF
notes: Synthetic peptide from Biologica Co, Ltd; also called ACTH41

binding result (human serum albumin [3]): binds
Molecule: RRRRRRRRRR (also called (Arg)10) [arginine decapeptide]

binding result (human serum albumin [3]): binds
Molecule: HHHHHHHHHHHHHHHHHHHH (also called (His)20) [histidine eicosa peptide]

binding result (human serum albumin [3]): binds
B5: inter-α-trypsin inhibitor heavy chain 4 (peptide)
peptide: GESRNRNVHSGSTFFKYYLQGAKIPKPEASFS
notes: Named as the protein, but a 32-residue peptide was used; also called ITIH4

binding result (human serum albumin [3]): binds
B6: ACTH partial peptide at the 1-24 positions (peptide)
peptide: SYSMEHFRWGKPVGKKRRPVKVYP
notes: Synthetic peptide from Biologica Co, Ltd; also called ACTH24
